Assay results published in patent US20020094951A1, “DENTAL REMEDIES CONTAINING PTH” (priority 1997, published 2002).

B1: human PTH (1-84) (protein, UniProt P01270 32-115, looked up)
Parathyroid hormone: SVSEIQLMHNLGKHLNSMERVEWLRKKLQDVHNFVALGAPLAPRDAGSQRPRKKEDNVLVESHEKSLGEADKADVNVLTKAKSQ
modifications: Parathyroid hormone
notes: human parathyroid hormone consisting of 84 amino acid residues

Key:
[1] = tested on: ovariectomized (OVX) female SD rats; assay: Bone density by DXA in ovariectomized (OVX) rats after hormone administration (Example 1); format: in vivo, rat; conditions: for bone density of the ramal portion / bone density of the femur / bone density of the lumbar vertebrae: four times a week for 10 weeks; for bone density of the ramal portion: FIG. 2; for bone density of the femur / bone density of the lumbar vertebrae: DXA
Method: Forty female SD rats were used. At the age of 20 weeks after birth, 35 of the animals were subjected to OVX (ovariectomy) and the remaining five were subjected to Sham operation. Starting at the age of 30 weeks when bone resorption progressed fully, animals of the OVX group were subcutaneously administered with hormones for 10 weeks on a four-times-a-week basis. Five of the group administered with human PTH (1-84) were administered a dose of 10 μg/kg body weight, another five a dose of 40 μg/kg body weight and the last five a dose of 150 μg/kg body weight. The group administered with 17β-estradiol as estrogen consisted of 5 rats, which were administered a dose of […] body weight. Ten rats were administered with both hormones, 17β-estradiol at a dose of 10 μg/kg body weight and human PTH (1-84) at different doses of 10 μg/kg body weight (in 5 rats) and 150 μg/kg body weight (in the other five). After the hormone administration and at the age of 40 weeks after birth, the mandibular bone, femur and lumbar vertebrae were extracted and measured for bone density and bone mineral content by DXA (Aloca). Measurement on the mandibular bone was conduced at two sites, the alveolar bone portion including the posterior teeth and the ramal portion.

[2] = tested on: ovariectomized female SD rats with tooth removal; assay: Bone density and bone mineral content by DXA in OVX rats with upper jaw posterior teeth extracted (Example 2); format: in vivo, rat; conditions: 150 μg/kg body weight s.c., four times a week for 10 weeks
Source text: Twenty-three female SD rats (body weight; 230-250 g) were used. At the age of 20 weeks after birth, 15 of the animals were subjected to OVX (ovariectomy) and the remaining eight were subjected to Sham operation. Then, at the age of 22 weeks after birth, ten of the ovariectomized rats and four in the Sham operation group had the posterior teeth in the upper jaw extracted. Starting at the age of 30 weeks when bone resorption progressed fully, five of the ovariectomized rats that had the posterior teeth in the upper jaw extracted were subcutaneously administered with human PTH (1-84) at a dose of 150 μg/kg body weight for 10 weeks on a four-time-a-week basis. After the administration of human PTH (1-84) and at the age of 40 weeks after birth, the whole mandibular bone was extracted and the bone densities and bone mineral contents in the whole mandibular bone and the mandibular molar portion were measured by DXA (Aloca).

[3] = OVX rats, 10, 40, 150 μg/kg body weight s.c.
[4] = OVX rats, dose of 150 μg/kg body weight s.c.

| Molecule | bone density of the ramal portion ([1]; OVX rats, s.c.) | bone density of the mandibular alveolar bone portion ([1]; OVX rats, 150 μg/kg body weight human PTH (1-84) alone, s.c., 10 weeks, FIG. 1) | bone density of the femur [1, 3] | bone density of the lumbar vertebrae [1, 3] | bone density of the femur [1, 4] | bone density of the lumbar vertebrae [1, 4] | bone density in the mandibular bone (summary) ([1]; ovariectomized aged female rats, summary statement) | bone mineral content of whole mandibular bone ([2]; FIG. 3) | bone mineral content of the mandibular molar portion ([2]; FIG. 4) |
| --- | --- | --- | --- | --- | --- | --- | --- | --- | --- |
| C[C@]12CC[C@@H]3c4ccc(O)cc4CC[C@H]3[C@@H]1CC[C@@H]2O [17β-estradiol, estra-1,3,5(10)-trien-3,17β-diol, reference compound] | did not recover | – | – | – | – | – | – | – | – |
| B1 | did not recover | significant increases over the OVX group and returned to the level for the Sham operation group | increased in a dose-dependent manner | increased in a dose-dependent manner | almost recovered to the level for the Sham operation group | almost recovered to the level for the Sham operation group | a distinct improvement in bone density | increased noticeably | increased noticeably |
